According to the supplement of paper PMC12855868:

B1: library; numbered along this chain (parent)
chain: MAAAGGARLLRAASAVLGGPAGRWLHHAGSRAGSSGLLRNRGPGGSAEASRSLSVSARARSSSEDKITVHFINRDGETLTTKGKVGDSLLDVVVENNLDIDGFGACEGTLACSTCHLIFEDHIYEKLDAITDEENDMLDLAYGLTDRSRLGCQICLTKSMDNMTVRVPETVADARQSIDVGKTS

Variants of: B1
Assay: scaled log2 fold change in cell abundance, elesclomol vs control (0 = silent mean, 1 = nonsense mean) (scaled log2 ratio); higher = higher viability under elesclomol (loss of FDX1 cuproptosis function)
Settings: glucose 10 mM
[1] = with ABC1 FDX1 KO, elesclomol 5 nM, 14 days
[2] = with HEK293T FDX1 KO, elesclomol 40 nM, 11 days
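Note: variant abundance is its share of total variant reads in each endpoint sample, from next-generation sequencing of the integrated ORF PCR-amplified out of genomic DNA.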

MAAAGGARLLRAASAVLGGPAGRWLHHAGSRAGSSGLLRNRGPGGSAEASRSLSVSARARSSSEDKITVHFINRDGETLTTKGKVGDSLLDVVVECNLDIDGFGACEGTLACSTCHLIFEDHIYEKLDAITDEENDMLDLAYGLTDRSRLGCQICLTKSMDNMTVRVPETVADARQSIDVGKTS [N96C]
scaled log2 fold change [1]: -0.324 | scaled log2 fold change [2]: -0.592

MAAAGGARLLRAASAVLGGPAGRWLHHAGSRAGSSGLLRNRGPGGSAEASRSLSVSARARSSSEDKITVHFINRDGETLTTKGKVGDSLLDVVVEENLDIDGFGACEGTLACSTCHLIFEDHIYEKLDAITDEENDMLDLAYGLTDRSRLGCQICLTKSMDNMTVRVPETVADARQSIDVGKTS [N96E]
scaled log2 fold change [1]: 0.241 | scaled log2 fold change [2]: -0.435

MAAAGGARLLRAASAVLGGPAGRWLHHAGSRAGSSGLLRNRGPGGSAEASRSLSVSARARSSSEDKITVHFINRDGETLTTKGKVGDSLLDVVVEDNLDIDGFGACEGTLACSTCHLIFEDHIYEKLDAITDEENDMLDLAYGLTDRSRLGCQICLTKSMDNMTVRVPETVADARQSIDVGKTS [N96D]
scaled log2 fold change [1]: 0.104 | scaled log2 fold change [2]: 0.22

MAAAGGARLLRAASAVLGGPAGRWLHHAGSRAGSSGLLRNRGPGGSAEASRSLSVSARARSSSEDKITVHFINRDGETLTTKGKVGDSLLDVVVEANLDIDGFGACEGTLACSTCHLIFEDHIYEKLDAITDEENDMLDLAYGLTDRSRLGCQICLTKSMDNMTVRVPETVADARQSIDVGKTS [N96A]
scaled log2 fold change [1]: -0.307 | scaled log2 fold change [2]: 1.03

MAAAGGARLLRAASAVLGGPAGRWLHHAGSRAGSSGLLRNRGPGGSAEASRSLSVSARARSSSEDKITVHFINRDGETLTTKGKVGDSLLDVVVKNNLDIDGFGACEGTLACSTCHLIFEDHIYEKLDAITDEENDMLDLAYGLTDRSRLGCQICLTKSMDNMTVRVPETVADARQSIDVGKTS [E95K]
scaled log2 fold change [1]: 0.0162 | scaled log2 fold change [2]: -0.042

MAAAGGARLLRAASAVLGGPAGRWLHHAGSRAGSSGLLRNRGPGGSAEASRSLSVSARARSSSEDKITVHFINRDGETLTTKGKVGDSLLDVVVMNNLDIDGFGACEGTLACSTCHLIFEDHIYEKLDAITDEENDMLDLAYGLTDRSRLGCQICLTKSMDNMTVRVPETVADARQSIDVGKTS [E95M]
scaled log2 fold change [1]: 0.0861 | scaled log2 fold change [2]: -0.356

MAAAGGARLLRAASAVLGGPAGRWLHHAGSRAGSSGLLRNRGPGGSAEASRSLSVSARARSSSEDKITVHFINRDGETLTTKGKVGDSLLDVVVPNNLDIDGFGACEGTLACSTCHLIFEDHIYEKLDAITDEENDMLDLAYGLTDRSRLGCQICLTKSMDNMTVRVPETVADARQSIDVGKTS [E95P]
scaled log2 fold change [1]: 0.178 | scaled log2 fold change [2]: -0.222

MAAAGGARLLRAASAVLGGPAGRWLHHAGSRAGSSGLLRNRGPGGSAEASRSLSVSARARSSSEDKITVHFINRDGETLTTKGKVGDSLLDVVVYNNLDIDGFGACEGTLACSTCHLIFEDHIYEKLDAITDEENDMLDLAYGLTDRSRLGCQICLTKSMDNMTVRVPETVADARQSIDVGKTS [E95Y]
scaled log2 fold change [1]: -0.143 | scaled log2 fold change [2]: -0.228

MAAAGGARLLRAASAVLGGPAGRWLHHAGSRAGSSGLLRNRGPGGSAEASRSLSVSARARSSSEDKITVHFINRDGETLTTKGKVGDSLLDVVVTNNLDIDGFGACEGTLACSTCHLIFEDHIYEKLDAITDEENDMLDLAYGLTDRSRLGCQICLTKSMDNMTVRVPETVADARQSIDVGKTS [E95T]
scaled log2 fold change [1]: -0.37

MAAAGGARLLRAASAVLGGPAGRWLHHAGSRAGSSGLLRNRGPGGSAEASRSLSVSARARSSSEDKITVHFINRDGETLTTKGKVGDSLLDVVVQNNLDIDGFGACEGTLACSTCHLIFEDHIYEKLDAITDEENDMLDLAYGLTDRSRLGCQICLTKSMDNMTVRVPETVADARQSIDVGKTS [E95Q]
scaled log2 fold change [1]: 0.0772 | scaled log2 fold change [2]: -0.398

MAAAGGARLLRAASAVLGGPAGRWLHHAGSRAGSSGLLRNRGPGGSAEASRSLSVSARARSSSEDKITVHFINRDGETLTTKGKVGDSLLDVVVWNNLDIDGFGACEGTLACSTCHLIFEDHIYEKLDAITDEENDMLDLAYGLTDRSRLGCQICLTKSMDNMTVRVPETVADARQSIDVGKTS [E95W]
scaled log2 fold change [1]: 0.0294 | scaled log2 fold change [2]: -0.33

MAAAGGARLLRAASAVLGGPAGRWLHHAGSRAGSSGLLRNRGPGGSAEASRSLSVSARARSSSEDKITVHFINRDGETLTTKGKVGDSLLDVVVVNNLDIDGFGACEGTLACSTCHLIFEDHIYEKLDAITDEENDMLDLAYGLTDRSRLGCQICLTKSMDNMTVRVPETVADARQSIDVGKTS [E95V]
scaled log2 fold change [1]: 0.0731 | scaled log2 fold change [2]: -0.123

MAAAGGARLLRAASAVLGGPAGRWLHHAGSRAGSSGLLRNRGPGGSAEASRSLSVSARARSSSEDKITVHFINRDGETLTTKGKVGDSLLDVVVSNNLDIDGFGACEGTLACSTCHLIFEDHIYEKLDAITDEENDMLDLAYGLTDRSRLGCQICLTKSMDNMTVRVPETVADARQSIDVGKTS [E95S]
scaled log2 fold change [1]: 0.146 | scaled log2 fold change [2]: 0.071

MAAAGGARLLRAASAVLGGPAGRWLHHAGSRAGSSGLLRNRGPGGSAEASRSLSVSARARSSSEDKITVHFINRDGETLTTKGKVGDSLLDVVVINNLDIDGFGACEGTLACSTCHLIFEDHIYEKLDAITDEENDMLDLAYGLTDRSRLGCQICLTKSMDNMTVRVPETVADARQSIDVGKTS [E95I]
scaled log2 fold change [1]: 0.142 | scaled log2 fold change [2]: -0.228

MAAAGGARLLRAASAVLGGPAGRWLHHAGSRAGSSGLLRNRGPGGSAEASRSLSVSARARSSSEDKITVHFINRDGETLTTKGKVGDSLLDVVVLNNLDIDGFGACEGTLACSTCHLIFEDHIYEKLDAITDEENDMLDLAYGLTDRSRLGCQICLTKSMDNMTVRVPETVADARQSIDVGKTS [E95L]
scaled log2 fold change [1]: -0.168 | scaled log2 fold change [2]: -0.709

MAAAGGARLLRAASAVLGGPAGRWLHHAGSRAGSSGLLRNRGPGGSAEASRSLSVSARARSSSEDKITVHFINRDGETLTTKGKVGDSLLDVVVRNNLDIDGFGACEGTLACSTCHLIFEDHIYEKLDAITDEENDMLDLAYGLTDRSRLGCQICLTKSMDNMTVRVPETVADARQSIDVGKTS [E95R]
scaled log2 fold change [1]: -0.296 | scaled log2 fold change [2]: -0.0027

MAAAGGARLLRAASAVLGGPAGRWLHHAGSRAGSSGLLRNRGPGGSAEASRSLSVSARARSSSEDKITVHFINRDGETLTTKGKVGDSLLDVVVNNNLDIDGFGACEGTLACSTCHLIFEDHIYEKLDAITDEENDMLDLAYGLTDRSRLGCQICLTKSMDNMTVRVPETVADARQSIDVGKTS [E95N]
scaled log2 fold change [1]: 0.2
